Data from patent publication US9879306B2, “Luciferase biosensors for cAMP” (PROMEGA CORPORATION, priority 2008, dated 2018).
Numbering of substitutions follows the chain as printed. Names and notes keep the numbering of the source.

T1: GPR41 (Homo sapiens, UniProt O14843)
T1 sequence (O14843 1-346): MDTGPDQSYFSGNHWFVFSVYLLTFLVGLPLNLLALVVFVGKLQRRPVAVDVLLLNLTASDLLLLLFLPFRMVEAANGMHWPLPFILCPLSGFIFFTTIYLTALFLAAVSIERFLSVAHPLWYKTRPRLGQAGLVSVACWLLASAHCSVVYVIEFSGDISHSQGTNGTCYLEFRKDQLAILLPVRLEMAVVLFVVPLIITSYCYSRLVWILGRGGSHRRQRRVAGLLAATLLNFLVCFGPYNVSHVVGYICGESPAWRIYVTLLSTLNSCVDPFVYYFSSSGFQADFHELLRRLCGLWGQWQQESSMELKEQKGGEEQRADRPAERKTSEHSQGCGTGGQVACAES

B1: 7A1: cAMP biosensor, RIIβB E284A and V316I, linker …; SEQ ID NO:113, 114 (protein)
chain: MPGAVGKVVPFFEAKVVDLDTGKTLGVNQRGELCVRGPMIMSGYVNNPEATNALIDKDGWLHSGDIAYWDEDEHFFIVDRLKSLIKYKGYQVAPAELESILLQHPNIFDAGVAGLPDDDAGELPAAVVVLEHGKTMTEKEIVDYVASQVTTAKKLRGGVVFVDEVPKGLTGKLDARKIREILIKAKKGSSGGSGGSGGGMYESFIESLPFLKSLEFSERLKVVDVIGTKVYNDGEQIIAQGDSADSFFIVESGEVKITMKRKGKSEVEENGAVEIARCSRGQYFGELALVTNKPRAASAHAIGTVKCLAMDVQAFERLLGPCMEIMKRNIATYEEQLVALFGTNMDIVAKNIKKGPAPFYPLEDGTAGEQLHKAMKRYALVPGTIAFTDAHIEVDITYAEYFEMSVRLAEAMKRYGLNTNHRIVVCSENSLQFFMPVLGALFIGVAVAPANDIYNERELLNSMGISQPTVVFVSKKGLQKILNVQKKLPIIQKIIIMDSKTDYQGFQSMYTFVTSHLPPGFNEYDFVPESFDRDKTIALIMNSSGSTGLPKGVALPHRTACVRFSHARDPIFGNQIIPDTAILSVVPFHHGFGMFTTLGYLICGFRVVLMYRFEEELFLRSLQDYKIQSALLVPTLFSFFAKSTLIDKYDLSNLHEIASGGAPLSKEVGEAVAKRFHLPGIRQGYGLTETTSAILITPEGV
notes: cAMP biosensor, RIIβB E284A and V316I, linker …
B2: GS358: parent cAMP biosensor Met-(FF luc 359-544)-GSSGGSGGSGGG-(RIIβB)-(FFluc4-355)-Val; SEQ ID NO:111, 112 (protein)
chain: B1 chain
B3: 4H7: 7A1 biosensor with F407Y in RIIβb; SEQ ID NO:35, 36 (protein)
chain: B1 chain with S190N, G191W, G192D, G195C, G197R, G198E, E218A, V250I, F341Y
B4: 16A2: 7A1 biosensor with F518L in Luc2.0; SEQ ID NO:60, 61 (protein)
chain: B1 chain with F161L, S190N, G191W, G192D, G195C, G197R, G198E, E218A, V250I
B5: 7A1-ILQY: 7A1 background with Luc2.0 F369I, F518L, K541Q and RIIβB F407Y; SEQ ID NO:31, 32 (protein)
chain: MPGAVGKVVPFIEAKVVDLDTGKTLGVNQRGELCVRGPMIMSGYVNNPEATNALIDKDGWLHSGDIAYWDEDEHFFIVDRLKSLIKYKGYQVAPAELESILLQHPNIFDAGVAGLPDDDAGELPAAVVVLEHGKTMTEKEIVDYVASQVTTAKKLRGGVVLVDEVPKGLTGKLDARKIREILIQAKKGSNWDSGCSREGMYESFIESLPFLKSLEFSARLKVVDVIGTKVYNDGEQIIAQGDSADSFFIIESGEVKITMKRKGKSEVEENGAVEIARCSRGQYFGELALVTNKPRAASAHAIGTVKCLAMDVQAFERLLGPCMEIMKRNIATYEEQLVALYGTNMDIVAKNIKKGPAPFYPLEDGTAGEQLHKAMKRYALVPGTIAFTDAHIEVDITYAEYFEMSVRLAEAMKRYGLNTNHRIVVCSENSLQFFMPVLGALFIGVAVAPANDIYNERELLNSMGISQPTVVFVSKKGLQKILNVQKKLPIIQKIIIMDSKTDYQGFQSMYTFVTSHLPPGFNEYDFVPESFDRDKTIALIMNSSGSTGLPKGVALPHRTACVRFSHARDPIFGNQIIPDTAILSVVPFHHGFGMFTTLGYLICGFRVVLMYRFEEELFLRSLQDYKIQSALLVPTLFSFFAKSTLIDKYDLSNLHEIASGGAPLSKEVGEAVAKRFHLPGIRQGYGLTETTSAILITPEGV
B6: 7A1-ILY: 7A1 background with Luc2.0 F369I, F518L and RIIβB F407Y; SEQ ID NO:27, 28 (protein)
chain: B5 chain with Q184K, F210I, F248Y, F359L

Legend:
Assay type in all cases: cell-based
dopamine D2 receptor = target: T2, dopamine D2 receptor (Homo sapiens, UniProt P14416); assay: Forskolin, dopamine and haloperidol responses of biosensor clones in HEK293 cells stably expressing the dopamine D2 receptor; conditions: for Dopamine Induced: 3 μM FSK + 0.3 μM dopamine; for Dopamine Induced / Forskolin (FSK) Induced / Forskolin (FSK) Uninduced: 10 minutes; for Forskolin (FSK) Induced: 3 μM FSK; for Halo Induced: 10 μM Haloperidol pre-treatment, then 3 μM FSK + 0.3 μM dopamine; for Dopamine Response: RLU agonist-treated / forskolin-treated; for Forskolin (FSK) Response: RLU forskolin-treated / untreated; for Halo Response: RLU haloperidol then FSK + dopamine / FSK + dopamine alone; for Forskolin (FSK) Uninduced: untreated (media alone)
T2 construct: expressed in transfected cells
From the text: To measure changes in the intracellular concentration of cAMP, HEK293 cells are transiently transfected with mutant cAMP biosensors followed by treatment with compounds known to increase or decrease the intracellular cAMP concentration through GPCR activation of Gs- or Gi-coupled receptors, respectively.
HEK293 cells stably expressing the dopamine D2 receptor were transiently transfected with the mutant cAMP biosensors from Example VIIB. Cells were also transfected with either 7A1 (Example III) or GS358 (parent biosensor) as controls. Cells were equilibrated for 2 hours at room temperature using 2 mM EF-luc. Antagonist assay wells were pre-treated for 10-15 minutes at room temperature with 10 μM Haloperidol (Halo). Next, the following reagents were added to their respective wells: media alone to “untreated” samples; 3 μM forskolin (FSK) to “forskolin-treated” samples; 3 μM FSK+0.3 μM dopamine to “agonist-treated” samples; and 3 μM FSK+0.3 μM dopamine to the aforementioned wells pre-treated with Halo. The cells were then incubated at room temperature for 10 minutes and luminescence was measured. Fold response for FSK was calculated by dividing the RLU from “forskolin-treated” cells by the RLU from the “untreated” cells. Fold response for dopamine treatment was calculated by dividing the RLU from the “agonist-treated” cells by the RLU from the “forskolin-treated” cells. Fold response for Haloperidol treatment was calculated by dividing the RLU from the cells treated with haloperidol then forskolin plus dopamine by the RLU of cells treated with forskolin plus dopamine alone.

HEK293 cells [1] = assay: Screening of linker variant cAMP biosensors in HEK293 cells with isoproterenol
From the text: The linker variants of Example III were inserted into a CP-FF construct as in Example II. The construct further comprised a mutant RIIβb cAMP binding site containing the substitutions at […] and […]. As in Example II, the constructs were first screened in E. coli to identify linker sequences which provided improved luminescence, improved response or both. The linker variants were then screened for improved luminescence signal, response to isoproterenol, or both in HEK293 cells. On day 1, 15,000 HEK293 cells were plated to the individual wells of a 96-well plate. On day 2, cells were transiently transfected with plasmid DNAs encoding a cAMP biosensor variant comprising a variant linker sequence using the LT1 reagent from Mirus Bio. […] Isoproterenol was added to 10 μM final concentration to the individual wells, and luminescence was monitored continuously in time (Mithras luminometer; 1 second integration time). Once measurements were complete (>30 minutes), cells were lysed, and Renilla luciferase activity was measured. Biosensor luminescence (FF RLU) was normalized using the Renilla luminescence signal (RL norm), and fold-induction (response) was calculated by dividing the normalized biosensor luminescence from isoproterenol-treated wells by the normalized luminescence from control wells that received no compound addition (Figure). […]

HEK293 cells [2] = assay: Luminescence and fold response of biosensor clones in HEK293 cells after isoproterenol or FSK; conditions: for Isoproterenol-5 minutes Induced / Isoproterenol-5 minutes Resp: 5 minutes after isoproterenol; for Forskolin (FSK) Induced / Forskolin (FSK) Resp: 15 minutes after FSK; for Isoproterenol-15 minutes Induced / Isoproterenol-15 minutes Resp: 15 minutes after isoproterenol; for Isoproterenol-5 minutes Resp / Forskolin (FSK) Resp / Isoproterenol-15 minutes Resp: RLU induced / RLU uninduced; for Isoproterenol-5 minutes Uninduced / Forskolin (FSK) Uninduced / Isoproterenol-15 minutes Uninduced: uninduced cells; for Forskolin (FSK) Uninduced / Isoproterenol-15 minutes Uninduced: 15 minutes
Procedure: B. HEK293 cells were transiently transfected with plasmid DNAs encoding various biosensor mutants as above. These biosensor mutants contained the E284A and V316I mutation in the RIIbetaB cAMP binding domain and the modified linker sequence 7A1 (GSNWDSGCSREG; SEQ ID NO: 129). The clones also contained the additional mutations outlined in Table 5. Cells were equilibrated for 2 hours at room temperature with 2 mM EF-Luc. Luminescence was measured 5 and 15 minutes after addition of the isoproterenol and 15 minutes after addition of FSK. Fold response (response; Resp.) was calculated by dividing relative light units (RLUs) from induced cells by the RLUs from uninduced cells. As a control, the biosensor GS358 and 7A1 were included.

GPR41 [3] = target: T1, GPR41; assay: Sodium proprionate CRC with biosensor variants in HEK293 cells stably expressing GPR41; conditions: for Fold Response Na proprionate + FSK(1 μM): with FSK 1 μM; for Fold Response Na proprionate: without FSK, ratio of induced to uninduced signal
Method in brief: (§1)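 Luminescent cAMP readout: EC50 and fold response from a sodium propionate concentration-response, tested ± FSK. Luminescence was read before compound and 30 min after. Cells were HEK293 stably expressing GPR41, carrying a transiently transfected cAMP biosensor variant and preloaded 2 h at room temperature with 5 mM EF-luc in CO2-independent medium plus 10% FBS.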

GPR41 [4] = assay: as above; conditions: ratio of RLU of FSK treated well to untreated well
Method in brief: as §1

T2 sequence (P14416 whole entry, species assumed): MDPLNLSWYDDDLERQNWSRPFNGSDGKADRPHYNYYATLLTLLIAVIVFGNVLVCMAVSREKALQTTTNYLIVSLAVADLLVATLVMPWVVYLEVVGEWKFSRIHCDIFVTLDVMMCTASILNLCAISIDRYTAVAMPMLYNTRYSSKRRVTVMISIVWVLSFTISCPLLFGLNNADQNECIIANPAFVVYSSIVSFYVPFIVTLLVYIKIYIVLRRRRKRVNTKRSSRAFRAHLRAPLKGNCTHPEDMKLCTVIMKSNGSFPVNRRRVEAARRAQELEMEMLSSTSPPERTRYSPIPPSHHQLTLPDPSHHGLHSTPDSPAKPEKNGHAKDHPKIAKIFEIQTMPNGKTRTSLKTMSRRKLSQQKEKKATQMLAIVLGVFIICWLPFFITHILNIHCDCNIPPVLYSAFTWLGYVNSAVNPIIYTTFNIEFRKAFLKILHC

Molecule | Dopamine Induced (dopamine D2 receptor) | Forskolin (FSK) Induced (dopamine D2 receptor) | Halo Induced (dopamine D2 receptor) | Dopamine Response (dopamine D2 receptor) | Forskolin (FSK) Response (dopamine D2 receptor) | Halo Response (dopamine D2 receptor) | Forskolin (FSK) Uninduced (dopamine D2 receptor) | Isoproterenol-5 minutes Induced (HEK293 cells [2]) | Forskolin (FSK) Induced (HEK293 cells [2]) | Isoproterenol-15 minutes Induced (HEK293 cells [2]) | Isoproterenol-5 minutes Resp (HEK293 cells [2]) | Forskolin (FSK) Resp (HEK293 cells [2]) | Isoproterenol-15 minutes Resp (HEK293 cells [2]) | Isoproterenol-5 minutes Uninduced (HEK293 cells [2]) | Forskolin (FSK) Uninduced (HEK293 cells [2]) | Isoproterenol-15 minutes Uninduced (HEK293 cells [2]) | Fold Response Na proprionate + FSK(1 μM) (GPR41 [3]) | Fold Response Na proprionate (GPR41 [3]) | Fold Signal Change (GPR41 [4]) | further results
B1 | 1860 RLU | 4709 RLU | 5429 RLU | 0.38 fold | 15 fold | 2.9 fold | 307 RLU | 73287 RLU | 161755 RLU | 173340 RLU | 60 fold | 47 fold | 51 fold | 1231 RLU | 3415 RLU | 3415 RLU | – | – | – | Signal Improvement (HEK293 cells [1]; fold improvement in luminescent signal over parental GS358 with E284A and V316I, HEK293, 10 μM isoproterenol): 2.4 fold; Response Improvement (HEK293 cells [1]; fold improvement in response to isoproterenol over parental GS358 with E284A and V316I, HEK293, 10 μM): 1.4 fold
B2 | 5153 RLU | 9166 RLU | 9218 RLU | 0.56 fold | 5 fold | 1.9 fold | 1704 RLU | 41610 RLU | 195335 RLU | 184150 RLU | 8 fold | 13 fold | 12 fold | 4943 RLU | 14895 RLU | 14895 RLU | 3.19 (n = 7) fold | 2.56 (n = 8) fold | 9.48 (n = 8) fold | –
B3 | 583 RLU | 3180 RLU | 2778 RLU | 0.18 fold | 14 fold | 4.8 fold | 230 RLU | 42467 RLU | 88555 RLU | 207210 RLU | 86 fold | 33 fold | 78 fold | 493 RLU | 2665 RLU | 2665 RLU | 2.98 fold | 1.94 fold | 93.6 fold | –
B4 | 95 RLU | 4117 RLU | 223 RLU | 0.33 fold | 28 fold | 2.3 fold | 147 RLU | 44890 RLU | 153670 RLU | 141135 RLU | 85 fold | 76 fold | 70 fold | 527 RLU | 2025 RLU | 2025 RLU | 3.76 fold | 2.73 fold | 89.7 fold | –
B5 | – | – | – | – | – | – | – | – | – | – | – | – | – | – | – | – | 8.13 fold | 2.57 fold | 220.1 fold | –
B6 | – | – | – | – | – | – | – | – | – | – | – | – | – | – | – | – | 8.96 fold | 2.49 fold | 194.6 fold | –
